Assays:
Test in all cases: SAXS
PARP-1 full-length = PARP-1 full-length (human, UniProt P09874 1-1014)
AB = AB (human, UniProt P09874 1-232)
ABC = ABC (human, UniProt P09874 1-373)

Measured: binding result

PARP-1 full-length, sequence (P09874 whole entry): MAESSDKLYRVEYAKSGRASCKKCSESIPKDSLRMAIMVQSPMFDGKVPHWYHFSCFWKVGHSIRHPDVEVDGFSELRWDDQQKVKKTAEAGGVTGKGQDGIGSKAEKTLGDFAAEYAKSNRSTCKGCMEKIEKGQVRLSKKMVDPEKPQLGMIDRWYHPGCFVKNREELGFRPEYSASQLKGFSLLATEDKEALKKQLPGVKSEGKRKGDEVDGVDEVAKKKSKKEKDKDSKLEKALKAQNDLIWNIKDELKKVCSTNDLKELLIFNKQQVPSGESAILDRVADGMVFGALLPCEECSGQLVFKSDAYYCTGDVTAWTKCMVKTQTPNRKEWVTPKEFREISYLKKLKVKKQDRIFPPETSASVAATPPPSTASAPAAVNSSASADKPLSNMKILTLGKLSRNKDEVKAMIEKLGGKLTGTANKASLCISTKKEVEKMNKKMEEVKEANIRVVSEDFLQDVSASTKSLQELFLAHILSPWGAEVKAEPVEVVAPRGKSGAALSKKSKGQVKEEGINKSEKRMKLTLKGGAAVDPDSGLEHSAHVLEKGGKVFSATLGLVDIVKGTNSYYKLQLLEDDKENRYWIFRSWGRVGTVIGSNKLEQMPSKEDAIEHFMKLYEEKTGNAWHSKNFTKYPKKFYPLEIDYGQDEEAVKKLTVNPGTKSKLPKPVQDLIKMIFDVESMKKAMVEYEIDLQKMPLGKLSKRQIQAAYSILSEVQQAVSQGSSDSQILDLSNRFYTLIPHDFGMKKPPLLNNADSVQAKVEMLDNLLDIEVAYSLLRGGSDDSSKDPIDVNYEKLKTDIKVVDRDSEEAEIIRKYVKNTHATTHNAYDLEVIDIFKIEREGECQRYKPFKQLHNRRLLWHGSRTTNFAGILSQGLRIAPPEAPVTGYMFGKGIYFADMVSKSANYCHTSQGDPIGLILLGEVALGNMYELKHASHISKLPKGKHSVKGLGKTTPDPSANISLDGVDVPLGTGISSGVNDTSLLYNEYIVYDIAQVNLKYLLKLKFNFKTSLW
ABC, sequence (P09874 1-373): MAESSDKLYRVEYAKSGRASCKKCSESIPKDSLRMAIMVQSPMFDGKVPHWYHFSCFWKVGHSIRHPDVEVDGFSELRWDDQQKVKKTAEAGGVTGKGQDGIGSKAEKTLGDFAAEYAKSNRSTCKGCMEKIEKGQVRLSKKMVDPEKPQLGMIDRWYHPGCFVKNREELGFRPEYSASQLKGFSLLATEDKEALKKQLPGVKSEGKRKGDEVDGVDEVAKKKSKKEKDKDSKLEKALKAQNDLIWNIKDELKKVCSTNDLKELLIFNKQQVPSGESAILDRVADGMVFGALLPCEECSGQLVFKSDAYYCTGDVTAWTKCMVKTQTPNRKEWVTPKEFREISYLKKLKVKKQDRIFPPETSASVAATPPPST
AB, sequence (P09874 1-232): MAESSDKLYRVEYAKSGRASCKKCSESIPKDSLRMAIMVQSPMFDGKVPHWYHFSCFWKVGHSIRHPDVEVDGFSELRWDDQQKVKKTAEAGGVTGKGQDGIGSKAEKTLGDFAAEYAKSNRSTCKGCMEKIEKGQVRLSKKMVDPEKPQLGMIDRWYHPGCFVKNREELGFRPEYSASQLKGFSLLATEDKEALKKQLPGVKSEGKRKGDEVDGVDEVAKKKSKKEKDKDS

B1: 8-mer DNA (dsDNA)
DNA 1: GGAATTCC
DNA 2: GGAATTCC
binds: PARP-1 full-length | AB | ABC

From publication PMC3971956
